Laboratory results published in the supplement of paper PMC9170038.

Test system: MS2 coat protein
Experiment: apparent KD of MS2 coat protein; designed switch direction (-1 OFF switch, 1 ON switch): -1; higher = weaker reporter binding
Summary of the method: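 Apparent KD, taken as the median over clusters for each design, was obtained by curve-fitting normalised cluster fluorescence. Designed RNA switches had been transcribed on Illumina chips by stalled E. coli RNA polymerase and titrated with SNAP-549-labelled MS2 coat protein, doubling from 0.7 or 1.5 nM to 3 µM.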

[1] = input ligand: microRNA oligo, concentration not stated
[2] = Eterna round: R95, input ligand: microRNA oligo, concentration not stated
[3] = Eterna round: R95, input ligand: FMN 200 uM
[4] = Eterna round: R95, input ligand: none

Row | Sequence | apparent KD of MS2 coat protein (input ligand: FMN 200 uM) [µM] | apparent KD of MS2 coat protein (input ligand: none) [µM] | also measured
1 | GGGAAAGAGGUAAGGAUAUCCUCCUCGAAAGAGGAGGAGAAGGUACAUGAGGAUCACCCAUGUAAGAAGAAGAG [AK-MS2ROC-r4-Bmoexclusion4-13] (Eterna round: R97, puzzle: Brourd's mod of Exclusion 4) | 0.025 | 0.0186 | –
2 | ACAUGAGGAUCACCCAUGUCCGGCUGGUCUGUUCCGGCUGUCGAGGAUAUAGUUCGGUGUUCGCGCUAGAAGGCGGGAGCUGGA [Aenatbe mod 52] (Eterna round: R96, puzzle: Exclusion NG 3) | 0.15 | 0.123 | apparent KD of MS2 coat protein [1]: 0.104 µM
3 | AAGAUGCGGGUAGGAUAUGGAGAGAAAGAAAGACCAGAAGGACUGGUCACACAACAUGAGGAUCACCCAUGUGUGUGUUGCGAA [EX ng 1 6] (Eterna round: R96, puzzle: Exclusion NG 1) | – | – | apparent KD of MS2 coat protein [1]: 0.00852 µM
4 | AGCAUGUAAGGAUAUGCAACACAGCUUUCAAUCGCUGUGCCGCAGAAGGUACAUGAGGAUCACCCAUGUGCUCC [Anesonza] (puzzle: Exclusion 4) | – | – | apparent KD of MS2 coat protein [2]: 0.0756 µM
5 | UAUUAGCAAGCGAGAUCCCACAUGAGGAUCACCCAUGUGCUCGUCUUAUAUAAGGUACUGUACGAAAGUACGGUACC [Sensor 3, v1 - 91 v6] (Eterna round: R97, puzzle: Sensor, turn-off variant 1) | 0.0166 | 0.0162 | –
6 | ACUGGAGCAGGAUAUACAUUCGUGCUUCGGCACGUAAGAUCACAUGAGGAUCACCCAUGUAGAAGGGCUCCAGU [E2/5-D1] (Eterna round: R97, puzzle: Exclusion 2) | 0.97 | 0.122 | –
7 | GCCUCACUUGAGGAUCACCCAAGUCAGGAUAUUUGAAAGCAAGCCUAAAACACGCGUAAAAGAAGGGACUUGAA [Armare] (Eterna round: R97, puzzle: Exclusion 1) | 0.0303 | 0.0209 | –
8 | GACAUGAGGAUCACCCAUGUAAGGGAUGAACUUCUGGGUAGCUAGGAUAUGGCUACAAAUGUGGACCAGAAGGAGCAUACCCUA [Didianveon] (Eterna round: R96, puzzle: Exclusion NG 3) | 0.013 | 0.0167 | apparent KD of MS2 coat protein [1]: 0.0127 µM
9 | CCGGCGGUAGGAUAUACAAUUGUAAAAGGCAGGUGGUGUCAACAUGAGGAUCACCCAUGUAGAAGGACCUUAAA [EX2 C.26] (Eterna round: R97, puzzle: Exclusion 2) | 0.0384 | 0.0224 | –
10 | GCACUGCGAGGAUAUACAUGAGGAUCACCCAUGUAUCGGUAGUCAAGGUUAAUUUAAGGUAGAAGGCGCGUAUU [JR_Ex3_Sub006] (Eterna round: R97, puzzle: Exclusion 3) | 0.0239 | 0.0227 | –
11 | AAGUACCGUCACGAUAGUGAUGGUACAACAAGCAGUGAAACAUGAGGAUCACCCAUGUCCUCGAUUGCUCGUCUUAU [Sensor 3 - 80] (puzzle: Sensor v3, turn-off variant 2) | – | – | apparent KD of MS2 coat protein [3]: 0.0677 µM; apparent KD of MS2 coat protein [2]: 0.142 µM; apparent KD of MS2 coat protein [4]: 0.0663 µM
12 | UUAAUUAAUUGCGCAAGAUCACAUGAGGAUCACCCAUGUAUAUAGGAUAUCAGCUCGAUUAGAGCUGAGAAGGAUAUACAGCGC [ExNG3/3-A1] (Eterna round: R96, puzzle: Exclusion NG 3) | 0.711 | 0.313 | apparent KD of MS2 coat protein [1]: 0.192 µM
13 | AGAGUGGAGACAGGAUAUGAGAAUAGAUAGAAAUCAGAAGGGUCACAUGAGGAUCACCCAUGUAAAGUCUUGAGGAUGAGUGAU [Prohibition 1 - Jieux - Exclusion NG1] (Eterna round: R96, puzzle: Exclusion NG 1) | 0.156 | 0.0817 | apparent KD of MS2 coat protein [1]: 0.0653 µM
14 | CCUUAGUAAGGAUAUCAGCUUAUAGAGUUGGUAAUGAGAGCUGAGAAGGUACAUGAGGAUCACCCAUGUUAGUU [JL Zatite mod 4] (puzzle: Exclusion 4) | – | – | apparent KD of MS2 coat protein [2]: 0.0203 µM
15 | AGUAACUAUCACGAAAGUGAUAGUUACAAACAAGUGAAAACAUGAGGAUCACCCAUGUCCUCAUUUGCUCGUCUUAU [Sensor 3 - 7] (puzzle: Sensor v3, turn-off variant 2) | – | – | apparent KD of MS2 coat protein [3]: 0.182 µM; apparent KD of MS2 coat protein [2]: 0.884 µM; apparent KD of MS2 coat protein [4]: 0.329 µM
16 | CAGCUGAAUGUCAGGAUAUCUAGAGCCUCGGCUCUAGAGAAGGGACAUGAGGAUCACCCAUGUCACUCCAGCUG [BmEx4/3-B2] (Eterna round: R97, puzzle: Brourd's mod of Exclusion 4) | 0.0224 | 0.0178 | –

Row | Sequence | apparent KD of MS2 coat protein (input ligand: FMN 200 uM) [µM] | apparent KD of MS2 coat protein (input ligand: none) [µM] | also measured
17 | CUAGAUCUUCGGAUCUAGUACAUGAGGAUCACCCAUGUUACGAGUUGAUCCUCAUACAAGCUUUUUGCUCGUCUUAU [Sensor v3 - Turn-off variant 1 - 25] (puzzle: Sensor v3, turn-off variant 1) | – | – | apparent KD of MS2 coat protein [3]: 0.0165 µM; apparent KD of MS2 coat protein [2]: 0.00903 µM; apparent KD of MS2 coat protein [4]: 0.0139 µM
18 | UCUUGUUGUCCGUGAGAAGACAUGAGGAUCACCCAUGUUAGUUUGAUUAUGAUGUGUAAGUUUGUUGCUCGUUUUAU [JR_STOV1_v2_Sub071] (Eterna round: R97, puzzle: Sensor, turn-off variant 1) | 0.0502 | 0.0565 | –
19 | GCGGUACAUGAGGAUCACCCAUGUCAGGAUAUCCGCUGUAACUUAAUAAAUAAGCGGUGGAGAAGGGACUUCGC [-18.24, -17.54 kcal, 30% A] (Eterna round: R97, puzzle: Exclusion 1) | 0.0342 | 0.0276 | –
20 | AGGUAACAUGAGGAUCACCCAUGUCAGGAUAUCAUGAAGAUUAGAUUAGAGGAGAGGUUGAGAAGGGACUAUAU [Excluse me! 16 - Jieux - Exclusion 1] (puzzle: Exclusion 1) | – | – | apparent KD of MS2 coat protein [2]: 0.0454 µM
21 | UAGCCUUUAGUUAGGAUAUGAUAUGGGAACCAUUAUCAGAAGGAACAUGAGGAUCACCCAUGUACCGACAGGGA [Eternabot (L2) Solution 9] (Eterna round: R97, puzzle: Brourd's mod of Exclusion 4) | 0.0199 | 0.0123 | –
22 | GGGUGUCCAGUGAGGAUAUCCAACGCUAAGGCGCAGGAGAAGGCACAUGAGGAUCACCCAUGUAGCUGAAGAAA [Onerbegeso] (puzzle: Brourd's mod of Exclusion 4) | – | – | apparent KD of MS2 coat protein [3]: 0.0499 µM; apparent KD of MS2 coat protein [2]: 0.0141 µM; apparent KD of MS2 coat protein [4]: 0.02 µM
23 | GCAUGAAUGUAGGAUAUCUGUAGGGCCCGGACCAGAGAAGGACGCACAUGAGGAUCACCCAUGUCUUGAUGAUC [Eternabot (L1) Solution 15] (Eterna round: R97, puzzle: Exclusion 6) | 0.54 | 0.239 | –
24 | GCGACAGCGGUUAGGAUAUAUGUUAGGACGUAGAUAUAGAAGGAACAUGAGGAUCACCCAUGUUUAAAAUGGGA [Eternabot (L1) Solution 71] (Eterna round: R97, puzzle: Brourd's mod of Exclusion 4) | 0.0695 | 0.0719 | –
25 | CGCUAUGCCGAGGAUAUUCUUGGUAUGCAUCUAGGAGAAGGCGGCACAUGAGGAUCACCCAUGUCAAAACAUAU [Eternabot (L1) Solution 97] (Eterna round: R97, puzzle: Exclusion 6) | 0.029 | 0.0284 | –
26 | UCUGGUGCAGGAUAUACAUGAGGAUCACCCAUGUGAUCAGCAGUCCUCGGACUGCAAUGUAGAAGGGCACCAGA [E3/1-D2] (Eterna round: R97, puzzle: Exclusion 3) | 0.0471 | 1.23 | –
27 | CCCAUGUCAGGAUAUUAAUUGAGCAGAAAGCCCUGUUCACUUGAGAAGGGACAUGAGGAUCACCCAUGUAAAAC [Belexeedte] (Eterna round: R97, puzzle: Exclusion 4) | 0.0192 | 0.507 | –
28 | AUUGGUUUGCGAGGAUAUGCUAAUAGUAAGUAUGCAGAAGGCGCGUUACAUAGAACCUCUAGUUACAUGAGGAUCACCCAUGUU [JR_ExcNG1_Sub038] (Eterna round: R96, puzzle: Exclusion NG 1) | – | – | apparent KD of MS2 coat protein [1]: 0.0409 µM
29 | CACCGUUAACUAGGAUAUAGUACAUGAGGAUCACCCAUGUAAUAAAUGAGAAUUUCGGAUGUAUGCUAGAAGGAGUAAAUCGGC [Ostricism 48 - Jieux - Exclusion NG 2] (Eterna round: R96, puzzle: Exclusion NG 2) | – | – | apparent KD of MS2 coat protein [1]: 0.0455 µM
30 | AGAUGCUCGAGUCGACAUGAGGAUCACCCAUGUACAGUUAGUGAGGAUAUCGGAGACACAUAGUAUGAGAAGGCGCGAACGUGA [Ex NG3 #15] (Eterna round: R96, puzzle: Exclusion NG 3) | 0.224 | 0.0978 | apparent KD of MS2 coat protein [1]: 0.0521 µM
31 | GCCCAGCUAGGAUAUCGCACUGCAGACAUGAGGAUCACCCAUGUGAUGAGGUCUGAAUCCCGAGAAGGAGCAUGGA [Enlain] (puzzle: Exclusion 5) | – | – | apparent KD of MS2 coat protein [2]: 0.0158 µM
32 | GACUGCUGAGGAUAUACAUGAGGAUCACCCAUGUGCUUCAGCUACGAAAGUAGCAUUGGUAGAAGGUAGUAGUC [LRO-Excl3-05] (puzzle: Exclusion 3) | – | – | apparent KD of MS2 coat protein [2]: 0.0115 µM
